Article PMC4222252

Tests used:
[1] = molecular target: His6-tagged HIV-1 integrase E10R/E13R (HIV-1)
[2] = molecular target: His6-tagged HIV-1 integrase E10R/E13R/K42E (HIV-1)
[3] = molecular target: His6-tagged HIV-1 integrase E10R/E13R (HIV-1); assay: pull-down
[4] = molecular target: His6-tagged HIV-1 integrase E10R/E13R/K42E (HIV-1); assay: pull-down
[5] = molecular target: His6-tagged HIV-1 integrase K42E (HIV-1); assay: pull-down

LEDGF/p75 K401E/K402E/R405E (from UniProt O75475 1-530) (natural protein)
concerted integration activity in vitro, percent of WT IN with WT LEDGF/p75 [1]: 55%
concerted integration activity in vitro, percent of WT IN with WT LEDGF/p75 [2]: 78%
percent of the WT LEDGF/p75 bound by WT IN [3]: 11%
percent of the WT LEDGF/p75 bound by WT IN [4]: 15%
percent of the WT LEDGF/p75 bound by WT IN [5]: 42%

lens epithelium-derived growth factor (LEDGF)/p75, wild type (from UniProt O75475 1-530) (natural protein)
concerted integration activity in vitro, percent of WT IN with WT LEDGF/p75 [1]: 53%
concerted integration activity in vitro, percent of WT IN with WT LEDGF/p75 [2]: 18%
